What was measured:
[1] = target: MERS-CoV RBD Twin-Strep His (wild type, G372-L588) (MERS-CoV); assay: BLI, RBD Twin-Strep His on anti-Penta-His biosensor, global 1:1 fit
[2] = target: MERS-CoV RBD Twin-Strep His (wild type, G372-L588) (MERS-CoV); assay: as above; remark: listed apart in the source
[3] = target: MERS-CoV RBD Twin-Strep His (wild type, G372-L588) (MERS-CoV); assay: ELISA (Figure 6A)

B1: recombinant human DPP4 with N-terminal 8xHis-tag (hDPP4-N'His) (receptor)
chain: HHHHHHHHGGGSGGGSGGGSDSRKTYTLTDYLKNTYRLKLYSLRWISDHEYLYKQENNILVFNAEYGNSSVFLENSTFDEFGHSINDYSISPDGQFILLEYNYVKQWRHSYTASYDIYDLNKRQLITEERIPNNTQWVTWSPVGHKLAYVWNNDIYVKIEPNLPSYRITWTGKEDIIYNGITDWVYEEEVFSAYSALWWSPNGTFLAYAQFNDTEVPLIEYSFYSDESLQYPKTVRVPYPKAGAVNPTVKFFVVNTDSLSSVTNATSIQITAPASMLIGDHYLCDVTWATQERISLQWLRRIQNYSVMDICDYDESSGRWNCLVARQHIEMSTTGWVGRFRPSEPHFTLDGNSFYKIISNEEGYRHICYFQIDKKDCTFITKGTWEVIGIEALTSDYLYYISNEYKGMPGGRNLYKIQLSDYTKVTCLSCELNPERCQYYSVSFSKEAKYYQLRCSGPGLPLYTLHSSVNDKGLRVLEDNSALDKMLQNVQMPSKKLDFIILNETKFWYQMILPPHFDKSKKYPLLLDVYAGPCSQKADTVFRLNWATYLASTENIIVASFDGRGSGYQGDKIMHAINRRLGTFEVEDQIEAARQFSKMGFVDNKRIAIWGWSYGGYVTSMVLGSGSGVFKCGIAVAPVSRWEYYDSVYTERYMGLPTPEDNLDHYRNSTVMSRAENFKQVEYLLIHGTADDNVHFQQSAQISKALVDVGVDFQAMWYTDEDHGIASSTAHQHIYTHMSHFIKQCFSLP
notes: range 38-766
Kd [1]: 7.8 nM

B2: recombinant rabbit DPP4 with C-terminal 6xHis-tag (rbDPP4-His) (receptor)
chain: NKGNHEYLHRQEDNILLFNAEYGNSSLFLANITFDEFGHSITDYSVSPDRLFLLLEYNYVKQWRHSYTASYDIYDLNKRQLITEERIPNNTQWITWAPEGHRLAYVWNNDIYVKLEPNLPSQRITWTGKADVIYNGITDWVYEEEVFSAYSALWWSPNGTFLAYAQFNDTGVPLIEYSFYSDEALQYPKTVRIPYPKAGAVNPTVRFFVVNTDSLSSITNATSVQITAPASMLIGDHYLCDVTWVTHERISLQWLRRIQNYSVMDICDYDRSSGRWNCLVARQHIEMSTTGWVGRFRPAEPHFTSDGNSFYKIMSNEEGYKHICYSLIDNQSCTFITRGAWEVIGIEALTSDYLYYISNEYKGMPGGRNLYKIQLTDHTKVTCLSCELKPERCQYYSVSFGKGAKYYQLRCSGPGLPLYTLHSSVNDQELRVLEDNSALDEMLQDVQMPSKTLDFIILNETKFWYQMVLPPHFDKSKKYPLLLEVYAGPCSQRADAIFRLNWATYLASTENIIVASFDGRGSGYQGDKIMHAINRRLGTLEVEDQIEAARQFSKMGFVDNERIAIWGWSYGGYVTSMVLGSGSGVFKCGIAVAPVSRWEYYDSIYTERYMGLPTPEDNLDHYRNSTVMSRAENFKQVEYLLIHGTADDNVHFQQSAQISKALVDAGVDFQAMWYTDEDHGIDSSTAHQHIYTHMSHFIKQCFSLHHHHHH
Kd [2]: 34.3 nM

B3: recombinant mouse DPP4 (mDPP4) (receptor)
chain: SKDEAAADSRRTYSLADYLKSTFRVKSYSLWWVSDFEYLYKQENNILLLNAEHGNSSIFLENSTFESFGYHSVSPDRLFVLLEYNYVKQWRHSYTASYNIYDVNKRQLITEEKIPNNTQWITWSPEGHKLAYVWKNDIYVKVEPHLPSHRITSTGEENVIYNGITDWVYEEEVFGAYSALWWSPNNTFLAYAQFNDTGVPLIEYSFYSDESLQYPKTVWIPYPKAGAVNPTVKFFIVNIDSLSSSSSAAPIQIPAPASVARGDHYLCDVVWATEERISLQWLRRIQNYSVMAICDYDKINLTWNCPSEQQHVEMSTTGWVGRFRPAEPHFTSDGSSFYKIISDKDGYKHICHFPKDKKDCTFITKGAWEVISIEALTSDYLYYISNQYKEMPGGRNLYKIQLTDHTNVKCLSCDLNPERCQYYAVSFSKEAKYYQLGCWGPGLPLYTLHRSTDHKELRVLEDNSALDRMLQDVQMPSKKLDFIVLNETRFWYQMILPPHFDKSKKYPLLLDVYAGPCSQKADASFRLNWATYLASTENIIVASFDGRGSGYQGDKIMHAINRRLGTLEVEDQIEAARQFVKMGFVDSKRVAIWGWSYGGYVTSMVLGSGSGVFKCGIAVAPVSRWEYYDSVYTERYMGLPIPEDNLDHYRNSTVMSRAEHFKQVEYLLIHGTADDNVHFQQSAQISKALVDAGVDFQAMWYTDEDHGIASSTAHQHIYSHMSHFLQQCFSLH
binding result [3]: no binding
